Assay results as given in patent publication EP1104310B1.

Assays:
Test in all cases: cell-based or functional assay
[1] = biological target: CCR1 expressed on HOS-CD4 cells (UniProt P32246)
[2] = biological target: CCR3 expressed on HOS-CD4 cells (UniProt P51677)
[3] = biological target: CCR4 expressed on HOS-CD4 cells (UniProt P51679)
[4] = biological target: CCR5 expressed on HOS-CD4 cells (UniProt P51681)
[5] = biological target: CXCR4 expressed on HOS-CD4 cells (UniProt P61073)
Sequence of UniProt P61073 (P61073 whole entry): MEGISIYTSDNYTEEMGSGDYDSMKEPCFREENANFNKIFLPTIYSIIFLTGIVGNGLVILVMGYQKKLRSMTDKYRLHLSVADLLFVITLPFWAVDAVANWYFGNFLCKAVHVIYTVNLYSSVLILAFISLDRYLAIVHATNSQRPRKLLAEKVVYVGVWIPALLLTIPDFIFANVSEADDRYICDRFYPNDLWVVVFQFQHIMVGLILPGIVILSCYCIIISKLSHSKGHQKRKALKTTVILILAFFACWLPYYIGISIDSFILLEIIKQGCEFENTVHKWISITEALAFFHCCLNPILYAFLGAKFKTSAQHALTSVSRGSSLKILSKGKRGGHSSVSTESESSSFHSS

Sequence of UniProt P32246 (P32246 whole entry): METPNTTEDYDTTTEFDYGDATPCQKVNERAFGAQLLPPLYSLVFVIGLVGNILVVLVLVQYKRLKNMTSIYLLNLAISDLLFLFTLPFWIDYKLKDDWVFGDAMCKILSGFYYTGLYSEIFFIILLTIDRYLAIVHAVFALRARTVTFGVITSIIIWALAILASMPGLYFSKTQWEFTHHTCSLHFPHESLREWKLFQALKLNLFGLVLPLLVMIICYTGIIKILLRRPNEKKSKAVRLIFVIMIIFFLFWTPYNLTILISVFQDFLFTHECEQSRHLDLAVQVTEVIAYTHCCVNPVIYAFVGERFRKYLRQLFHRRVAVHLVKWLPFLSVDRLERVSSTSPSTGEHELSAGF
Sequence of UniProt P51679 (P51679 whole entry): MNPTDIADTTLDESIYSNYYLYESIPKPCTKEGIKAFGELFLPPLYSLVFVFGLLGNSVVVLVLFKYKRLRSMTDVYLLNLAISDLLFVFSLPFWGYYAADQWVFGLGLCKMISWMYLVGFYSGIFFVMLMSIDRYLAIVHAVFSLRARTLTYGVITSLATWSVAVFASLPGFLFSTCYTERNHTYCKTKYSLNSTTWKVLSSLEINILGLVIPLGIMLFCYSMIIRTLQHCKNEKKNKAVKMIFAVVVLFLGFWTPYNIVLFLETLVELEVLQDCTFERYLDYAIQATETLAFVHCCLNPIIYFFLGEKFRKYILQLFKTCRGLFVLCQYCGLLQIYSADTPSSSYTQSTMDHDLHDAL
Sequence of UniProt P51677 (P51677 whole entry): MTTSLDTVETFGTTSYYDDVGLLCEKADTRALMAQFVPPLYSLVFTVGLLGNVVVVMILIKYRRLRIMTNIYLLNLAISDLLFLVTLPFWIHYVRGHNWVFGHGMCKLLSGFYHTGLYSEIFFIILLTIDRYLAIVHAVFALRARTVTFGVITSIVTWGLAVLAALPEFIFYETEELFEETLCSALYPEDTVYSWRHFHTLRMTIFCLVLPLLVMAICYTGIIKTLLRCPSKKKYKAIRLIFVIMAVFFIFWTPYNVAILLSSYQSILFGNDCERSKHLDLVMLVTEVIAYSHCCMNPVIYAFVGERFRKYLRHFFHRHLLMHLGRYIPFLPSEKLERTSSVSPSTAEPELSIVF
Sequence of UniProt P51681 (P51681 whole entry): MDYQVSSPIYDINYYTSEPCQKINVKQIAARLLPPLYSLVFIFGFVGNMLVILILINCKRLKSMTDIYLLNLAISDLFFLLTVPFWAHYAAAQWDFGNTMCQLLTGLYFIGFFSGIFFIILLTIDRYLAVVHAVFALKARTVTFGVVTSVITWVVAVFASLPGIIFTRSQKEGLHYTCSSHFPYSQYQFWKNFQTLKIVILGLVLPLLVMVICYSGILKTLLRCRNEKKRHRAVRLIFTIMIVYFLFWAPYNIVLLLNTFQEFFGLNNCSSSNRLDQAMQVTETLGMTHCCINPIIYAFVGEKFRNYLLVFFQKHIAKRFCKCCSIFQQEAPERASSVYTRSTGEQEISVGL

Substance	Infectivity Titer in HOS-CD4 Cells Expressing CCR1 [1]	Infectivity Titer in HOS-CD4 Cells Expressing CCR3 [2]	Infectivity Titer in HOS-CD4 Cells Expressing CCR4 [3]	Infectivity Titer in HOS-CD4 Cells Expressing CCR5 [4]	Infectivity Titer in HOS-CD4 Cells Expressing CXCR4 [5]
HIV-1 NL4-3 envelope, expressed on pseudovirus	< 4 titer (1:n)	< 4 titer (1:n)	< 4 titer (1:n)	32 titer (1:n)	> 256 titer (1:n)
HIV-1 AD8 envelope, expressed on pseudovirus	< 4 titer (1:n)	< 4 titer (1:n)	< 4 titer (1:n)	256 titer (1:n)	< 4 titer (1:n)
